This is an account of results in PMC2939071, “The Crystal Structure of Toxoplasma gondii Pyruvate Kinase 1” (PLoS ONE, 2010).

What is called stoichiometry N is a count of units in the complex or per binding partner. As a reminder, the Km is the substrate concentration at which the rate is half of its maximum. In general, Vmax refers to the top rate of the reaction or transport when substrate is in excess.

For data set [1], the target named is Toxoplasma gondii pyruvate kinase 1, full length (Met1 to Glu531) (Toxoplasma gondii) (UniProt Q27006). Kind of data set: SEC; Superdex 200 26/60 in 10 mM HEPES pH 7.5, 500 mM NaCl; oligomeric state from the elution volume (164 mL full length, 168 mL truncated); profile not shown. For orientation: Size exclusion chromatography separates by hydrodynamic size, large species first.

Data set [2] has the same target. Kind of data set: crystal structure; full TgPK1 crystallised without substrates, effectors or added ions; 19% PEG3350, 100 mM BisTris pH 6.0, 200 mM NH4I; the asymmetric unit is a tetramer.
Data set [3] has as its target Toxoplasma gondii pyruvate kinase 1, N-terminally truncated (Ile39 to Glu531) (Toxoplasma gondii). The experiment in a line: crystal structure; truncated TgPK1 crystallised with K+ and Mg2+; 15% PEG3350, 100 mM succinic acid pH 7.0; the asymmetric unit is a tetramer.
For data set [4] the target is unchanged. Kind of data set: SEC; Superdex 200 26/60 in 10 mM HEPES pH 7.5, 500 mM NaCl; oligomeric state from the elution volume (164 mL full length, 168 mL truncated); profile not shown.
Data set [5] addresses T1, TgPK1 (T. gondii pyruvate kinase 1), full length (Toxoplasma gondii, UniProt Q969A2).
T1 construct: gene pk; full length Met1-Glu531, N-terminal His6 tag and TEV site, tag kept; synthetic gene, expressed in E. coli; homotetramer
T1 sequence (Q969A2 1-531): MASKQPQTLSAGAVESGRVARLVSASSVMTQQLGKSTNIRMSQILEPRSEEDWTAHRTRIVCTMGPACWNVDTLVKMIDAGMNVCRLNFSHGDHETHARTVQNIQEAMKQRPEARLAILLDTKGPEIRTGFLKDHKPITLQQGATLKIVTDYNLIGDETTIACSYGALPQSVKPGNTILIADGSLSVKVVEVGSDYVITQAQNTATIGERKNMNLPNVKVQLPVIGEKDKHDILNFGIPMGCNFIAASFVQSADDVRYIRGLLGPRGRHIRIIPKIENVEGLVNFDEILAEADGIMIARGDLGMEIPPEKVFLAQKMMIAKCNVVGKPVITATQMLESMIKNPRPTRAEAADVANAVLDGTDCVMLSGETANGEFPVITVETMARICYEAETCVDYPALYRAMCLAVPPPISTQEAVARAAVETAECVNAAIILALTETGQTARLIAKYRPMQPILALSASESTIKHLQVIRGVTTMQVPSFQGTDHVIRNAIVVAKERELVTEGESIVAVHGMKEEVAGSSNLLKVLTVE
The experiment in a line: lactate dehydrogenase-coupled NADH assay, Hill fit. Type of data set: biochemical. The note with it: allosteric activator; 1 mM effector, PEP varied 0.01 to 10 mM, 2 mM ADP, 50 mM KCl, 20 mM MgCl2, pH 7.5.

Substrate in data set [6]: C=C(OP(=O)(O)O)C(=O)O
Kind of data set: lactate dehydrogenase-coupled NADH assay, Hill fit. Type of data set: biochemical, Toxoplasma gondii. As to conditions: no sugar effector, cooperative (Hill), 2 mM ADP, 50 mM KCl, 20 mM MgCl2, 50 mM HEPES pH 7.5, room temperature. The text has this: lactate dehydrogenase-coupled NADH assay, Hill fit on TgPK1 (T. gondii pyruvate kinase 1), full length

On to “Toxoplasma gondii pyruvate kinase 1, full length (Met1 to Glu531) (from UniProt Q27006 1-509) (enzyme)”, for which the stoichiometry N in data set [1] and in data set [2] was 4 throughout.

As to “Toxoplasma gondii pyruvate kinase 1, N-terminally truncated (Ile39 to Glu531) (domain or fragment)”, the stoichiometry N in data set [3] and in data set [4] was 4 each time.

In the case of `O=P(O)(O)OC[C@H]1OC(O)[C@H](O)[C@@H](O)[C@@H]1O` (stereo partly shown) [G6P, glucose-6-phosphate], the “lactate dehydrogenase-coupled NADH assay, Hill fit” value in data set [5] is given as “G6P showed a classic allosteric activation with a six-fold reduction in the apparent Km”.

B1: TgPK1 (T. gondii pyruvate kinase 1), full length (Toxoplasma gondii) (protein)
chain: MASKQPQTLSAGAVESGRVARLVSASSVMTQQLGKSTNIRMSQILEPRSEEDWTAHRTRIVCTMGPACWNVDTLVKMIDAGMNVCRLNFSHGDHETHARTVQNIQEAMKQRPEARLAILLDTKGPEIRTGFLKDHKPITLQQGATLKIVTDYNLIGDETTIACSYGALPQSVKPGNTILIADGSLSVKVVEVGSDYVITQAQNTATIGERKNMNLPNVKVQLPVIGEKDKHDILNFGIPMGCNFIAASFVQSADDVRYIRGLLGPRGRHIRIIPKIENVEGLVNFDEILAEADGIMIARGDLGMEIPPEKVFLAQKMMIAKCNVVGKPVITATQMLESMIKNPRPTRAEAADVANAVLDGTDCVMLSGETANGEFPVITVETMARICYEAETCVDYPALYRAMCLAVPPPISTQEAVARAAVETAECVNAAIILALTETGQTARLIAKYRPMQPILALSASESTIKHLQVIRGVTTMQVPSFQGTDHVIRNAIVVAKERELVTEGESIVAVHGMKEEVAGSSNLLKVLTVE
notes: full length Met1-Glu531, N-terminal His6 tag and TEV site, tag kept; synthetic gene, expressed in E. coli; homotetramer
Take B1: in data set [6], the Km was 750 ± 51 µM and the Vmax was 42 µM/min.
